Experimental data as given in patent US20240301429A1.

Target: AP-VEGF165 (human) (UniProt P15692)
Experiment: saturation binding, trap coated on plate, AP-VEGF165 titrated, AP chemiluminescence

Sequence of AP-VEGF165 (human) (P15692 other isoform, or with tags, fused parts or gaps): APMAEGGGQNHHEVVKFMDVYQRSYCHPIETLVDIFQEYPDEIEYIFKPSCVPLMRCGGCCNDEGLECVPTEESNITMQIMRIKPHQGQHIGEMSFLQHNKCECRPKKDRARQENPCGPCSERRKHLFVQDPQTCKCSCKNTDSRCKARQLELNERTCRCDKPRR

| Kd | Binder |
| --- | --- |
| 20.1 nM | NRP1 trap M (receptor) FRNDKCGDTIKIESPGYLTSPGYPHSYHPSEKCEWLIQAPDPYQRIMINFNPHFDLEDRDCKYDYVEVFDGENENGHFRGKFCGKIAPPPVVSSGPFLFIKFVSDYETHGAGFSIRYELFKRGPECSQNYTTPSGVIKSPGFPEKYPNSLECTYIVFAPKMSEIILEFESFDLEPDSNPPGGMFCRYDRLEIWDGFPDVGPHIGRYCGQKTPGRIRSSSGILSMVFYTDSAIAKEGFSANYSVLQSSVSEDFKCMEALGMESGEIHSDQITASSQYSTNWSAERSRLNYPENGWTPGEDSYREWIQVDLGLLRFVTAVGTQGAISKETKKKYYVKTYKIDVSSNGEDWITIKEGNKPVLFQGNTNPTDVVVAVFPKPLITRFVRIKPATWETGISMRFEVYGCRSGSKENLYFQG |
| 67 nM | NRP1 trap Z (receptor) FRNDKCGDTIKIESPGYLTSPGYPHSYHPSEKCEWLIQAPDPYQRIMINFNPHFDLEDRDCKYDYVEVFDGENENGHFRGKFCGKIAPPPVVSSGPFLFIKFVSDYETHGAGFSIRYELFKRGPECSQNYTTPSGVIKSPGFPEKYPNSLECTYIVFAPKMSEIILEFESFDLEPDSNPPGGMFCRYDRLEIWDGFPDVGPHIGRYCGQKTPGRIRSSSGILSMVFYTDSAIAKEGFSANYSVLQSSVSEDFKCMEALGMESGEIHSDQITASSQYSTNWSAERSRLNYPENGWTPGKKSYREWIQVDLGLLRFVTAVGTQGAISKETKKKYYVKTYKIDVSSNGEDWITIKEGNKPVLFQGNTNPTDVVVAVFPKPLITRFVRIKPATWETGISMRFEVYGCKITDYPCSGMLGMVSGLISDSQITSSNQGDRNWMPENIRLVTSRSGWALPPAPHSYINEWLQIDLGEEKIVRGIIIQGGKHRENKVFMRKFKIGYSNNGSDWKMIMDDSKRKAKSFEGNNNYDTPELRTFPALSTRFIRIYPERATHGGLGLRMELLGCEVEAPTAGPTTPNGNLVDECDDDQANCHSGTGDDFQLTGGTTVLATEKPTVIDSTIQSEFPTYGFNCEFGWGSHKTFCHWEHDNHVQLKWSVLTSKTGPIQDHTGDGNFIYSQADENQKGKVARLVSPVVYSQNSAHCMTFWYHMSGSHVGTLRVKLRYQKPEEYDQLVWMAIGHQGDHWKEGRVLLHKSLKLYQVIFEGEIGKGNLGGIAVDDISINNHISQEDCAKPADLDKKNPEIKIDETGSTPGYEGEGEGDKNISRKPGNVLKTLDPRSGSKENLYFQG |
| 29.5 nM | NRP1 trap AB (receptor) FRNDKCGDTIKIESPGYLTSPGYPHSYHPSEKCEWLIQAPDPYQRIMINFNPHFDLEDRDCKYDYVEVFDGENENGHFRGKFCGKIAPPPVVSSGPFLFIKFVSDYETHGAGFSIRYELFKRGPECSQNYTTPSGVIKSPGFPEKYPNSLECTYIVFAPKMSEIILEFESFDLEPDSNPPGGMFCRYDRLEIWDGFPDVGPHIGRYCGQKTPGRIRSSSGILSMVFYTDSAIAKEGFSANYSVLQSSVSEDFKCMEALGMESGEIHSDQITASSQYSTNWSAERSRLNYPENGWTPGEDSYREWIQVDLGLLRFVTAVGTQGAIAKKTKKKYYVKTYKIDVSSNGEDWITIKEGNKPVLFQGNTNPTDVVVAVFPKPLITRFVRIKPATWETGISMRFEVYGCKITDYPCSGMLGMVSGLISDSQITSSNQGDRNWMPENIRLVTSRSGWALPPAPHSYINEWLQIDLGEEKIVRGIIIQGGKHRENKVFMRKFKIGYSNNGSDWKMIMDDSKRKAKSFEGNNNYDTPELRTFPALSTRFIRIYPERATHGGLGLRMELLGCEVEAPTAGPTTPNGNLVDECDDDQANCHSGTGDDFQLTGGTTVLATEKPTVIDSTIQSEFPTYGFNCEFGWGSHKTFCHWEHDNHVQLKWSVLTSKTGPIQDHTGDGNFIYSQADENQKGKVARLVSPVVYSQNSAHCMTFWYHMSGSHVGTLRVKLRYQKPEEYDQLVWMAIGHQGDHWKEGRVLLHKSLKLYQVIFEGEIGKGNLGGIAVDDISINNHISQEDCAKPADLDKKNPEIKIDETGSTPGYEGEGEGDKNISRKPGNVLKTLDPRSGSKENLYFQG |
